According to the supplement of paper PMC9732359:
± gives the uncertainty stated by the source.

Assay: protein stability index of a GFP-peptide fusion (yeast GPS) (PSI 1-4); higher = more stable; sorted into four equal gates, so the index is relative within each strain
How it was run: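 Each library plasmid carries Cherry plus GFP with a tiled 17-residue yeast protein peptide fused downstream, and the pooled library was carried in yeast. Mid-log cultures in leucine-free medium were sorted into four equal gates by GFP/Cherry ratio. Reads from Illumina sequencing of PCR-amplified plasmids from each gate were assigned to strains by barcodes. Per peptide, the protein stability index was computed as the summed products of gate read frequency and gate number.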

| Sequence | protein stability index (doa10∆) | protein stability index (pdr5∆) | protein stability index (san1∆) | protein stability index (ubr1∆) |
| --- | --- | --- | --- | --- |
| LNLDSEQTVEYMVSRAI [RPN3] | 3.32 ± 0.23 | 3.22 ± 0.3 | 2.93 ± 0.25 | 2.83 ± 0.11 |
| DQNPIQVVVDAITNTGP [RPS5] | 2.35 ± 0.053 | 2.79 ± 0.041 | 2.76 ± 0.061 | 2.13 ± 0.041 |
| IAKTFTVDVSSPTENGV [RPL22A] | 3.04 ± 0.11 | 3 ± 0.1 | 2.9 ± 0.094 | 2.99 ± 0.077 |
| GAELRSVCTEAGMFAIR [RPT1] | 2.61 ± 0.18 | 3.4 ± 0.3 |  | 3.03 ± 0.23 |
| ELLSMNIAPRLRLEDIF [RET1] | 2.57 ± 0.065 | 2.25 ± 0.046 | 2.35 ± 0.057 | 2.5 ± 0.047 |
| TNGNNAGGGSNKSSVRP [MED6] | 3.19 ± 0.14 | 3.47 ± 0.097 | 2.77 ± 0.1 | 3.11 ± 0.088 |
| VLLATWNLEKWREIIEK [IRR1] |  | 3.14 ± 0.16 | 2.92 ± 0.1 |  |
| TNAAFPFHDPEARLFNI [ECM29] | 3.04 ± 0.1 | 2.87 ± 0.12 | 2.42 ± 0.11 | 2.38 ± 0.072 |
| SYFSPINSSNEALVQAF [YCG1] | 2.33 ± 0.063 | 2.19 ± 0.061 | 2.69 ± 0.072 | 2.25 ± 0.042 |
| EEYDDDDDNSNVDYYNV [SNF2] | 2.89 ± 0.067 | 2.93 ± 0.063 | 2.93 ± 0.042 | 3.06 ± 0.067 |
| DDDILIIRPILGKVRFA [SRB4] | 1.51 ± 0.056 | 1.66 ± 0.092 | 1.93 ± 0.15 | 2.56 ± 0.05 |
| ANRDDVKGRENELLLPS [RPC82] | 3.37 ± 0.14 |  | 3.6 ± 0.09 | 3.34 ± 0.084 |
| RRILAAAAAAAAAVSGN [SSN3] | 1.41 ± 0.12 | 1.26 ± 0.1 | 1.06 ± 0.26 | 1.59 ± 0.094 |
| VSEITKLKFFPSGEALI [RPN14] | 2.55 ± 0.089 | 2.76 ± 0.069 | 2.95 ± 0.064 | 3.18 ± 0.059 |
| QIPTVSSPLGFEETKLS [SIR4] | 3.06 ± 0.12 | 3.05 ± 0.17 | 2.63 ± 0.14 | 2.9 ± 0.081 |
| SIGKNPFNKPNIETGEN [SWI3] | 3.04 ± 0.055 | 3.03 ± 0.048 | 2.87 ± 0.037 | 2.97 ± 0.044 |
| KKSVLKQVQDFEENDHP [COR1] | 2.85 ± 0.084 | 2.81 ± 0.15 | 2.81 ± 0.098 | 2.66 ± 0.067 |
| NLRHERNSLETKLTTCK [YIL149C/MLP2] | 2.83 ± 0.13 | 2.79 ± 0.14 | 2.93 ± 0.12 | 3.04 ± 0.077 |
| GSGKSNMMDAISFVLGV [SMC1] | 3.18 ± 0.073 | 3.17 ± 0.074 | 3.24 ± 0.058 | 3.32 ± 0.043 |
| REQYETQVALNESEKDQ [UBP6] | 3.1 ± 0.069 | 2.66 ± 0.065 | 2.69 ± 0.067 | 2.91 ± 0.051 |

| Sequence | protein stability index (doa10∆) | protein stability index (pdr5∆) | protein stability index (san1∆) | protein stability index (ubr1∆) |
| --- | --- | --- | --- | --- |
| ALALYVDAYRRLENKLS [SRP68] | 1.78 ± 0.2 | 1.42 ± 0.11 |  | 1.52 ± 0.1 |
| AYHQKYVDEQSKNELKK [RPS16A] | 2.5 ± 0.093 | 2.02 ± 0.094 | 2.02 ± 0.13 | 2.94 ± 0.12 |
| LLTLIVREYEQPDANKK [ISW2] |  |  | 3.09 ± 0.2 |  |
| REKLAEVYKAEKDAVSV [RPS24A] | 3.27 ± 0.11 | 3.17 ± 0.069 | 3.45 ± 0.054 | 3.33 ± 0.11 |
| EKDASGKPSFVFGASDK [YOR098C/NUP1] | 2.63 ± 0.067 | 2.52 ± 0.065 | 2.98 ± 0.076 | 2.37 ± 0.074 |
| KRRVTNLEFNYTKPYPN [SMC2] | 3.12 ± 0.071 | 2.88 ± 0.14 | 2.75 ± 0.16 | 2.81 ± 0.12 |
| KKNPNWLEEYHPKLIKN [FAS1] | 2.05 ± 0.087 | 1.94 ± 0.061 | 1.97 ± 0.084 | 2.14 ± 0.046 |
| QLLNGQKIVVVRAEELN [RPL16A] | 1.28 ± 0.049 | 1.31 ± 0.051 | 1.24 ± 0.13 | 1.21 ± 0.056 |
| CLMRSLHKLELKAKNQE [DSN1] | 1.21 ± 0.06 | 1.31 ± 0.067 | 1.19 ± 0.16 | 1.16 ± 0.051 |
| TESIALSSMRFKPSQEP [RRI1] | 2.85 ± 0.072 | 3.31 ± 0.064 | 3.3 ± 0.076 | 2.86 ± 0.057 |
| KVRLNASEREELALIEE [PRP8] | 3.14 ± 0.17 | 2.89 ± 0.14 | 2.98 ± 0.12 |  |
| FKLDKDTSNWELSDSWR [YGL100W/SEH1] | 3.37 ± 0.068 | 3.45 ± 0.055 | 3.39 ± 0.037 | 3.31 ± 0.042 |
| SFLHVDDKLAYIRVNHA [POP8] | 2.67 ± 0.08 | 2.29 ± 0.068 | 2.21 ± 0.11 | 2.56 ± 0.061 |
| LKMMKLIVDTHVQFRLG [PRP8] | 2.53 ± 0.08 | 2.21 ± 0.075 | 2.56 ± 0.059 | 1.93 ± 0.048 |
| LEVGRRFSPDEDFEHNN [MCD1] | 3.26 ± 0.15 | 3.45 ± 0.18 | 3.22 ± 0.16 | 3.45 ± 0.18 |
| VVSTDLESIQKTKEAVA [RPL4A] | 2.95 ± 0.072 | 3.12 ± 0.083 | 2.9 ± 0.08 | 2.82 ± 0.063 |
| PESQGQHEQQKQQEQLE [YMR153W/NUP53] | 3.4 ± 0.083 | 3.37 ± 0.066 | 3.24 ± 0.06 | 3.26 ± 0.072 |
| LKSPVLSKLCVPVANQF [QCR7] | 2.22 ± 0.053 | 2.45 ± 0.065 | 1.92 ± 0.053 | 2.01 ± 0.031 |
| CVEISHISKIIGLDTQQ [RPN6] | 2.38 ± 0.17 |  |  |  |
| PNRITLTDHRKETWLHE [SRB8] | 2.8 ± 0.082 | 3.03 ± 0.086 | 3.17 ± 0.07 | 3.22 ± 0.068 |
